Measured values published in US20240245793A1, “PSD-95 INHIBITORS AND USES THEREOF” (priority 2021, published 2024).

target: PDZ1-2 of PSD-95 (postsynaptic density protein-95), P78352; experiment: FP competition against fluorescent dimeric probe, Ki from IC50
Sequence (P78352 61-249 limits assumed): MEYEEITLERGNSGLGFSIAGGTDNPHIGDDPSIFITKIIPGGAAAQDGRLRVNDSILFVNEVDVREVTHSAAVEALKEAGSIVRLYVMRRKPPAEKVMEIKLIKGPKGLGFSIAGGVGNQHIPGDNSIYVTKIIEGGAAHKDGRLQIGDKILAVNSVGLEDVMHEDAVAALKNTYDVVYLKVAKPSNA

Row | Binder | Ki
1 | compound 19, NPEG4-(ISTDV)2 fused to L-TAT (Ac-[…]-) (modifications not checked) peptide: ISTDV […] | 36.1 nM
2 | compound 15, NPEG4-(KETVV)2 fused to L-TAT (Ac-[…]-) (modifications not checked) peptide: KETVV […] | 2.1 nM
3 | compound 13, NPEG4-(KETTV)2 fused to L-TAT (Ac-[…]-) (modifications not checked) peptide: KETTV […] | 6.5 nM
4 | compound 21, NPEG4-(VETVV)2 fused to L-TAT (Ac-[…]-) (modifications not checked) peptide: VETVV […] | 15.8 nM
5 | compound 17, NPEG4-(KETRV)2 fused to L-TAT (Ac-[…]-) (modifications not checked) peptide: KETRV […] | 6.6 nM
6 | compound 11, NPEG4-(KETLV)2 fused to L-TAT (Ac-[…]-) (modifications not checked) peptide: KETLV […] | 5.4 nM
